Measured values taken from patent US7425614B2, “Neuroprotective therapeutics preventing ERK/MAPK activation through the NMDA receptor” (Children's Medical Center Corporation, priority 2003, dated 2008).

Legend:
[1] = target: T1, NR2B/RasGRF1 native complex (Rattus norvegicus, UniProt P28818+Q00960); test: competition co-immunoprecipitation of native NR2B-RasGRF1 complexes from rat brain microsomes; assay type: binding; conditions: NusA fusion proteins 3-5 μM; 6- to 8-week-old rat brains
T1 construct: from tissue; host or cells: P2 microsomes of 6- to 8-week-old rat brain
Procedure: Transfected cells were solubilized in lysis buffer (100 mM Tris-Cl [pH 8.5], 500 mM NaCl, 1% Triton X-100) supplemented with corn plete protease inhibitor (Roche) and immunoprecipitated with NR2B (Santa Cruz, sc-9057), NR1, or NR2A (Chemicon) antibody (5 μg/ml), washed with lysis buffer, separated on SDS gel, and blotted on PVDF. Blots were probed with anti-RasGRF1 (Santa Cruz) and the appropriate NR subunit antibody. 6- to 8-week-old rat brain P2 microsomes were isolated and solubilized as described (Luo, J., et al. (1997) Mol. Pharmacol. 51, 79-86). 80 μg of solubilized protein were immunoprecipitated with NR2B, RasGRF1, or pooled rabbit IgG, and immunoprecipitated proteins were probed on Western blot with RasGRF1 and NR2B antibodies. All immunoprecipitation experiments were only taken as valid if repeated 3-5 times with similar results. Routine negative controls with antigen pre-absorption were carried out for antibodies used in immunoprecipitation experiments. […]
For in vitro binding experiments, equimolar amounts of in vitro translated ^35S-labeled proteins (calculated from radioactivity of the excised protein band and cysteine content in the specific fragment) were incubated with a 3-fold molar excess of translated RasGRF1 for 30 min at 30° C., diluted with RIPA buffer, and immunoprecipitated with anti-HA-agarose (Santa Cruz). […]

ERK = test: phospho-ERK immunocytochemistry in cultured hippocampal neurons; assay type: cell-based, rat; conditions: cultured hippocampal neurons
Procedure: Neurons from 18 day rat embryos were dissociated using trypsin and plated on coverslips coated with poly-L-ysine in minimal essential medium (MEM) with 10% NU serum (BD Biosciences, Le Pont de Claix, France) at densities of 30,000 cells/cm^2 as described (Brewer, G. J. (1995) J. Neurosci. Res. 42, 674-683). On days 7 and 11 of culture incubation, half of the medium was changed to MEM with 2% B27 supplement (Invitrogen).
Cells were transfected with cDNA for EGFP fusion proteins (LipofectAMINE 2000; Invitrogen) or by pseudoviral infection using a Sindbis expression system (Invitrogen). Neurons were incubated with cDNA and LipofectAMINE for 2 hr, rinsed, and incubated with culture media (MEM with 2% of B27 supplement) 17 hr prior to the experiment. For viral delivery, neuronal cultures were incubated 30 min with pseudoviral constructs diluted 200-500× in culture media. Cultures were rinsed and incubated in media for 15 hr. 0.1% to 1.5% of neurons were fluorescent after expressing LipofectAMINE-delivered constructs while Sindbis infection yielded 1%-10% transfection efficiency. Most of the experiments were performed on 12-14 days in vitro (div) cultures unless otherwise indicated.
Three hours before stimulation, TTX (1 μM), CNQX (40 μM), APV (100 μM), and nimodipine (5 μM) were added to neurons. For stimulation, coverslips with neurons were transferred into the following solutions.
(1) 100 μM NMDA, 10 μM glycine, 1 μM TTX, 40 μM CNQX, 5 μM nimodipine dissolved in culture media and incubated for 3 min. […]
After stimulation, neurons were fixed with 4% formaldehyde and labeled with rabbit anti-phospho-p44/42 ERK antibody (Cell Signaling) and with mouse anti-MAP2 antibody (Sternberger Monoclonals). Cy3-conjugated goat anti-rabbit IgG and Cy5-conjugated goat antimouse IgG (Jackson Immunoresearch Laboratories, West Grove, Pa.) were secondary antibodies. NMDA and all antagonists were from Tocris Neuramin. BDNF was from Calbiochem. Images were acquired with an Olympus Fluoview-500 confocal microscope (40×; 1.0 NA) and quantified using Olympus Fluoview software. In each experiment, the pERK fluorescence of the cell soma was measured for 25 neurons taken from consecutive fields. Phospho-ERK fluorescence data were normalized to the values obtained in nontransfected cells after NMDA stimulation. The background fluorescence (mean fluorescence of nonstimulated neurons) was subtracted prior to normalization.

NMDA receptor = test: evoked NMDA EPSCs in organotypic cultures of hippocampal slices; assay type: cell-based, rat
Procedure: Organotypic cultures of hippocampal slices were prepared as described (Becq, H., et al. (1999) J. Neurosci. Res. 58, 553-566) according to modified technique of Stoppini et al. (J. Neurosci. Methods 37, 173-182 (1991)). Hippocampal slices (400 μm) were cut from postnatal 7-day-old rat brains and incubated in culture medium in 5% CO2. Infections were performed on the 6th day of slice incubation by local pressure injection of virus via a patch pipette (tip diameter ˜1 μm) into the CA1 region of the hippocampus.
For electrophysiological recordings, slices were placed in a recording chamber and perfused with ACSF including in mM: 119 NaCl, 2.5 KCl, 2 CaCl2, 2 MgCl2, 26 NaHCO3, 1 NaH2PO4, 11 glucose, 0.01 bicuculline, 0.01 CNQX, 0.002 2-chloroadenosine (pH 7.4), in 5% CO2/95% O2. Synaptic responses were evoked by bipolar electrode with monophasic voltage pulses (1-10 V, 200 μs). The stimulating electrodes were placed over Schaeffer collateral fibers. NMDA evoked EPSCs were recorded at different holding potentials before, during, and after ifenprodil application in order to measure the I-V relationship. For analysis, at least 5 NMDA-evoked EPSCs were averaged for every experimental condition.

T1 sequence (Q00960 27-1482): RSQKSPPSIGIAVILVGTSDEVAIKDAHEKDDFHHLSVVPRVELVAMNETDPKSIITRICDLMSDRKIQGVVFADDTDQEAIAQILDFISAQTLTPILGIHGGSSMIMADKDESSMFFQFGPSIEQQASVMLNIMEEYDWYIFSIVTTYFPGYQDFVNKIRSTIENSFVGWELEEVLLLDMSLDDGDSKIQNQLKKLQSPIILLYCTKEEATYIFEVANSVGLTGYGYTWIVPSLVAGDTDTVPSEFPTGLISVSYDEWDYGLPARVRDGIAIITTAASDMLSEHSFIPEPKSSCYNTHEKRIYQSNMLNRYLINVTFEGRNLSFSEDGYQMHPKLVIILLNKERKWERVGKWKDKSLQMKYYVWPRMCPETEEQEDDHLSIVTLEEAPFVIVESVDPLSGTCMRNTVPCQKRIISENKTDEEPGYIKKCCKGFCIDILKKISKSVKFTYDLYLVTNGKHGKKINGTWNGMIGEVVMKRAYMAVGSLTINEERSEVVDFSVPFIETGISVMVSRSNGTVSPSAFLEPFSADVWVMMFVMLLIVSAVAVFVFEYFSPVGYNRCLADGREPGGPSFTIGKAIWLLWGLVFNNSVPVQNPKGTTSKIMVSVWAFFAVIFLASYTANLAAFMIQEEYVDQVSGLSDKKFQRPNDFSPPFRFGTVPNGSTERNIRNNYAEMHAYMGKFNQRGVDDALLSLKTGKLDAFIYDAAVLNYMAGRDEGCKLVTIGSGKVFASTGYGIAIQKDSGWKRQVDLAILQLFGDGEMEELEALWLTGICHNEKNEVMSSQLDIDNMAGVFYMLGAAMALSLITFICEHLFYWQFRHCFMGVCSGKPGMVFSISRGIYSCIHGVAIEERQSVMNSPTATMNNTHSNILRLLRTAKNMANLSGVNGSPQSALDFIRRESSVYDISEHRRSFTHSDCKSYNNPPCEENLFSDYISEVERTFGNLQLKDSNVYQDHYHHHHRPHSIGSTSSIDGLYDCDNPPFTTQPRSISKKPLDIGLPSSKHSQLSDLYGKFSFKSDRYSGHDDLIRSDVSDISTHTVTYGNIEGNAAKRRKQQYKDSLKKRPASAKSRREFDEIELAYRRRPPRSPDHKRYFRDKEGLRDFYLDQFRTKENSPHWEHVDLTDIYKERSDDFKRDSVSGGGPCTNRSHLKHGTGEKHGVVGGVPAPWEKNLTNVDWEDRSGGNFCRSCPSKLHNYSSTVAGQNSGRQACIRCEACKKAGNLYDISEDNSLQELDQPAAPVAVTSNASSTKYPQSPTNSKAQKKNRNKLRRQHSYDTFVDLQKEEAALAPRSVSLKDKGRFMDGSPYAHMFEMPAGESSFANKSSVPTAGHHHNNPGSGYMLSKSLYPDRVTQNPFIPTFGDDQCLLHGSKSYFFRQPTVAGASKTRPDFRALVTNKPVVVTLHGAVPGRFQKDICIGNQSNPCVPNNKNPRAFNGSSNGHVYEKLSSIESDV
T1 sequence (P28818 whole entry, the tested form may be a part): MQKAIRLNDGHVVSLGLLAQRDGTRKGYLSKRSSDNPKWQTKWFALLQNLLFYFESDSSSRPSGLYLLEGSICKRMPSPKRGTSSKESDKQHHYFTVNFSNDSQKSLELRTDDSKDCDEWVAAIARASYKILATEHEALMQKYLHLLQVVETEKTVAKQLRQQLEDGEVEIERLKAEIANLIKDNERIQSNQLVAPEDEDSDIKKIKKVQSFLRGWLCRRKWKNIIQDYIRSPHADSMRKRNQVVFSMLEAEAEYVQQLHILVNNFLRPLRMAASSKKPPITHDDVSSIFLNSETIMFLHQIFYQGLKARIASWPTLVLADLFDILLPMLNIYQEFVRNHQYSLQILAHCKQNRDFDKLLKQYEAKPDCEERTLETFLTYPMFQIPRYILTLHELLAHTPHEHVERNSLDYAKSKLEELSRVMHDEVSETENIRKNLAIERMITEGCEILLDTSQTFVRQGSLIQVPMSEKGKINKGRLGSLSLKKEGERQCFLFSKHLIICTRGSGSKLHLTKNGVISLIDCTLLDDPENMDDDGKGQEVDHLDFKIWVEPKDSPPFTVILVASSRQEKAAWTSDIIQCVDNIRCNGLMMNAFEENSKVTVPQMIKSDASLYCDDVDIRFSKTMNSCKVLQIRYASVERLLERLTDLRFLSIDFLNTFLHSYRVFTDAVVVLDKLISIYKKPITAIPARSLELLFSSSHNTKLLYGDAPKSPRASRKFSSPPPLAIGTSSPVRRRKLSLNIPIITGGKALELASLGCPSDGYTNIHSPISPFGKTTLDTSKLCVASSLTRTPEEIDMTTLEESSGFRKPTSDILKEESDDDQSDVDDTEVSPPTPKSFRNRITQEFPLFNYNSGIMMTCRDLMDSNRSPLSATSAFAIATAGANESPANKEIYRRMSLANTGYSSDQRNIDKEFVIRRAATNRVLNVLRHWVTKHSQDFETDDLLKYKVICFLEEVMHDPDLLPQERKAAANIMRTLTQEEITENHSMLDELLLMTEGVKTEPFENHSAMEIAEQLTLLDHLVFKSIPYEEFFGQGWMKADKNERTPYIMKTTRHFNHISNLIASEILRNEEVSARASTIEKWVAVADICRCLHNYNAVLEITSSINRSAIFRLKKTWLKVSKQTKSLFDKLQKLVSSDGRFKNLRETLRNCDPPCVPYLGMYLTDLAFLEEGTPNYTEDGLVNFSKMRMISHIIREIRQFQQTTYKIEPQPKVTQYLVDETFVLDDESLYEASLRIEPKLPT

B1: NR2B-BD: peptide of amino acids 886-1310 of the NR2B C-terminal domain that binds RasGRF1; used as NusA or EGFP fusion (protein)
chain: SPTATMNNTHSNILRLLRTAKNMANLSGVNGSPQSALDFIRRESSVYDISEHRRSFTHSDCKSYNNPPCEENLFSDYISEVERTFGNLQLKDSNVYQDHYHHHHRPHSIGSTSSIDGLYDCDNPPFTTQPRSISKKPLDIGLPSSKHSQLSDLYGKFSFKSDRYSGHDDLIRSDVSDISTHTVTYGNIEGNAAKRRKQQYKDSLKKRPASAKSRREFDEIELAYRRRPPRSPDHKRYFRDKEGLRDFYLDQFRTKENSPHWEHVDLTDIYKERSDDFKRDSVSGGGPCTNRSHLKHGTGEKHGVVGGVPAPWEKNLTNVDWEDRSGGNFCRSCPSKLHNYSSTVAGQNSGRQACIRCEACKKAGNLYDISKDNSLQELDQPAAPVAVTSNASSTKYPQSPTNSKAQKKNRNKLRRQHSYDTFVDL
modifications: left off: small tags and cut ends
notes: used as NusA or EGFP fusion
B1 was tested, and the “co-immunoprecipitation of NR2B and RasGRF1” value [1] was “completely blocked”, the “BDNF-induced ERK activation” value (ERK; 100 ng/ml BDNF) was “had no effect” and the “NMDA-induced (NMDAR-dependent) ERK activation” value (ERK; 100 μM NMDA) was “inhibit”. The “depolarization-induced ERK activation” value (ERK; 50 mM KCl) was “had no effect” and the “portion of the ifenprodil-sensitive component of the evoked EPSCs” value (NMDA receptor) was “Neither of the expressed peptides decreased”.
